From US10947270B2, “Targeted prodrug cytosine deaminase fusion carrier and application thereof” (National Yang-Ming University, priority 2015, dated 2021)

Tests used:
HUVEC and U87MG cells = test: Fluorescence microscopy of binding and distribution of yCD series fusion proteins; type: cell-based, human; conditions: 500 nM protein, 2 hours
Procedure: (FIG. 8A) or 37° C. […] (FIG. 8C) or 37° C. (FIG. 8D) for 2 hours, and then the fluorescent staining is performed for the cells, and the confocal fluorescence microscope is used to observe the distribution of protein in cells. (Green signal: β3 integrin; red signal: anti-His6-tag (also represents the signal of the fusion protein); blue signal: Hoechst 33342 cell nuclear stain) (Calibration scale: 20 μm).
HUVEC and U87MG cells are co-cultured with culture medium containing 500 nM RGD4C-yCD and RGD4C-yCD/UPRT protein at 4° C. and 37° C. for 2 hours, then the cells are stained with fluorescence, and the distribution in the cell is observed by conjugated fluorescence microscopy.

HUVEC cells = test: Specific binding assay of yCD series recombinant protein and cell (cell ELISA); type: cell-based, human; conditions: HUVEC versus MCF-7
Procedure: (§1) FIG. 5A, FIG. 5B, and FIG. 5C are respectively represented HUVEC cells, U87MG cells, MCF-7 cells seeded in 96-well plates for 24 hours, and then RGD4C-yCD, yCD, RGD4C-yCD/UPRT and yCD/UPRT with different concentrations are added for cells binding assay. After reacted with anti-His-HRP antibody and TMB substrate, ELISA reader (OD450 nm) is used to detect the amount of recombinant protein bound to the cells, and the binding curve is drawn. The nonlinear curve of the prism software is used to make a diagram and calculate the dissociation constant (Kd).
(§2) The anti-His6-Tag-HRP antibody and TMB show the color reagent to detect the amount of recombinant protein bound to the cell, then the dissociation constant Kd value of the recombinant protein and the integrin αvβ3 receptor is calculated and a binding curve is drawn. […] The cell binding ability of RGD4C-yCD for HUVEC and U87MG are about 7.7 folds and 6.8 folds higher than MCF-7 respectively. The cell binding ability of RGD4C-yCD/UPRT for HUVEC and U87MG are about 6.9 folds and 5.8 folds higher than MCF-7 respectively. […] It is shown that RGD4C-yCD and RGD4C-yCD/UPRT are specially bound with integrin αvβ3 through RGD4C sequence.

[1] = Enzyme activity and kinetic analysis of yCD series recombinant proteins (5-FC converted into 5-FU); type: biochemical; conditions: 50 nM protein
Procedure: FIGS. 2A-2B show the enzyme activities of RGD4C-yCD, yCD, RGD4C-yCD/UPRT and yCD/UPRT proteins to convert 5-FC to 5-FU. 50 nM of RGD4C-yCD, yCD, RGD4C-yCD/UPRT or yCD/UPRT protein reacted with increasing concentrations of 5-FC in phosphate buffered saline solutions. […] The measured data was used to plot the enzyme kinetic curve that takes the substrate concentration [S] as the x-axis and takes the initial reaction rate V0 as the y-axis,
The enzyme activity of 5-FC converted into 5-FU by RGD4C-yCD, yCD, RGD4C-yCD/UPRT and yCD/UPRT is performed. The recombinant protein concentration (50 nM) added with 5-FC at different concentrations. The 5-FC consumption and the generated amount of 5-FU is calculated. The measured data is taken as the x-axis by the substrate concentration [S]; the initial reaction rate V0 is the kinetic curve by making a diagramthe with y-axis (see FIG. 2A and FIG. 2B); the non-linear regression is made by the prism software according to the Michaelis-Menten equation; calculate the enzyme kinetic parameter Km and Vmax. […] It is speculated that the yCD function in each fusion protein is similar, but yUPRT may affect the effects of yCD and 5-FC.

integrin αvβ3 receptor = integrin αvβ3 receptor (Homo sapiens, UniProt P05106+P06756); test: ELISA binding assay of yCD series recombinant protein to integrin αvβ3 receptor; conditions: for decrease of binding to integrin αvβ3 by RGDfv peptide: RGDfv peptide at same concentration
Chain of integrin αvβ3 receptor (P06756 31-889 limits assumed): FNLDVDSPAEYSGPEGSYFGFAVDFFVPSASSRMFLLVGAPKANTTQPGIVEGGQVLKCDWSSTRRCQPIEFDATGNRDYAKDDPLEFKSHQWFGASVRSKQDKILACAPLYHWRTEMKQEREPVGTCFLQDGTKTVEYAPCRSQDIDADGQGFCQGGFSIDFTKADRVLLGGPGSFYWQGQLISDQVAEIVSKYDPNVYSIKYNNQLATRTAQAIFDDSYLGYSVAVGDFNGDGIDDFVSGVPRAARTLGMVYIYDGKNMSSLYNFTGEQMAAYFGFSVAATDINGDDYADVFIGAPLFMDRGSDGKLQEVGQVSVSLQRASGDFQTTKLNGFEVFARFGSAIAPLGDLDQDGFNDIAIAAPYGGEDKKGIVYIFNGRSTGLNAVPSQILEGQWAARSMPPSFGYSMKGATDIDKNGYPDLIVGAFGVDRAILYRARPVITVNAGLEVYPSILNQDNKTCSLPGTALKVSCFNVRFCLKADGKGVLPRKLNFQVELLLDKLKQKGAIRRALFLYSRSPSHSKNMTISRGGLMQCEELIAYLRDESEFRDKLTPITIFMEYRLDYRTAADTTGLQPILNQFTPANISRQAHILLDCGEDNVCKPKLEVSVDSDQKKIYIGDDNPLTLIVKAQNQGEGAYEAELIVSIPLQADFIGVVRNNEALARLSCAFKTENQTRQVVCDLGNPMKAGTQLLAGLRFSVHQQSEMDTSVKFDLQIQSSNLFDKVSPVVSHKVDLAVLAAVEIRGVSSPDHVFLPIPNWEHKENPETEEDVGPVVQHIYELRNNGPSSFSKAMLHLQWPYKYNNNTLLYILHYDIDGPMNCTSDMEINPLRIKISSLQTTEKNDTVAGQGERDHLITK
Chain of integrin αvβ3 receptor (P06756 891-1048 partner limits assumed): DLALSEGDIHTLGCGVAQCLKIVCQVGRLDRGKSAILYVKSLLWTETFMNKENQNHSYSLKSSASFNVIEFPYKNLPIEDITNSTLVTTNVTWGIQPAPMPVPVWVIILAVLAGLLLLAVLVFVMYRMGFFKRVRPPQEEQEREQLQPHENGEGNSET
Chain of integrin αvβ3 receptor (P05106 27-788): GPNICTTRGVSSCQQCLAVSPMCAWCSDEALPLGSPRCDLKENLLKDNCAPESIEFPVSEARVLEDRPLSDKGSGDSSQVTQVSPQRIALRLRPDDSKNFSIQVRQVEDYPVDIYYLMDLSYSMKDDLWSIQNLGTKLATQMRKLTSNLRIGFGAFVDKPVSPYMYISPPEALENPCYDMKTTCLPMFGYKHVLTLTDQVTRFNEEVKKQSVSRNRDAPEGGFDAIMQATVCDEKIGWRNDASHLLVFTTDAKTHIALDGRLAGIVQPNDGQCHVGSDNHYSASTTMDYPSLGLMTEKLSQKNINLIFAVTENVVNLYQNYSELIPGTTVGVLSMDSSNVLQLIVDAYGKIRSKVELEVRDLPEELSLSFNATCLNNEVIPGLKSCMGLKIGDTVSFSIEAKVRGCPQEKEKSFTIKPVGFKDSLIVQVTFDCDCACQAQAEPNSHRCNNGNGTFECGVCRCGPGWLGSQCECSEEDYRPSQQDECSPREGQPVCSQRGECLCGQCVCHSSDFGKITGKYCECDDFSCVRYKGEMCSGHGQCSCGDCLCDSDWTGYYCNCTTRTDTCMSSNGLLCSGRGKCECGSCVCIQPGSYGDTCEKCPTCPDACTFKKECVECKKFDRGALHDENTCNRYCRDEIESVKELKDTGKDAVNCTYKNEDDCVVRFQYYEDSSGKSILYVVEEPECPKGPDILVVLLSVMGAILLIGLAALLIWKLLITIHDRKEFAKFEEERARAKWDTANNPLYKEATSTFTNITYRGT
Procedure: FIGS. 3A-3B show the binding affinity and specificity of RGD4C-yCD, yCD, RGD4C-yCD/UPRT and yCD/UPRT proteins to integrin αvβ3. The binding affinities of RGD4C-yCD, yCD, RGD4C-yCD/UPRT and yCD/UPRT proteins to integrin αvβ3 were determined by ELISA assay using horseradish peroxidase (HRP)-tagged anti-His6 antibody (FIG. 3A). The dissociation constant Kd is obtained by prism software with curve fitting method. […] (*compared with untreated RGDfv group, P<0.05)
The specific binding ability of RGD4C-yCD, yCD, RGD4C-yCD/UPRT and yCD/UPRT recombinant protein to integrin αvβ3 receptor is analyzed by ELISA binding assay, plotted with prism software and made with curve fitting to find the dissociation constant Kd value.

[2] = Enzyme kinetic analysis of yCD series proteins after DTPA modification, marking and purification; type: biochemical
Excerpt: The enzyme activity of yCD is not affected by DTPA modification.
FIGS. 24A-24B show the kinetic curve of yCD series protein modified, labeled and purified by DTPA. The enzyme activity of the two proteins is not affected by the labeling conditions. After adding EDTA with a 10-fold molar excess of protein, and it is competitively purified, In-DTPA-yCD compared with the original enzyme activity.
The curve and enzyme kinetic parameters (see FIG. 18 and Table 13) are fitted by the […] protein enzyme kinetics through the Michaelis-Menten formula in the Graph prism program.
Before the protein is labeled by radioisotope, its enzyme function must be determined, and based on the original enzyme function, it should be examined whether it will be affected during the radioactive marking process. The curve and enzyme kinetic parameters of protein are fitted by the Michaelis-Menten formula in the Graph prism program. […] Whether the yCD and RGD4C-yCD protein detected by the same method will be affected under the conditions of DTPA modification, marking and purification. […] After the completion of the radioactive metal mark, it is necessary to add EDTA of 10-fold protein Moire number and react at room temperature for 1 hour to compete for the radioactive metal isotope indium which is not chelated on DTPA. The EDTA in this step also has the chance to chelate the metal zinc ion of the enzyme catalytic center, the enzyme activity is impaired, so it is necessary to analyze the enzyme activity of In-DTPA-yCD and In-RGD4C-yCD protein after competition with EDTA. After the EDTA competitive reaction is completed, the enzyme kinetics analysis can be carried out by reducing the EDTA molecule weight through membrane centrifugation method and by replacing the solution with pH 7.0. […] The curve and receptor binding ability parameters of the protein and integrin αvβ3 are fitted under the conditions of DTPA modification, marking and purification by the One site-Specific binding formula in the Graph prism program (see FIG. 25 and Table 18). […] Although the two proteins after marking are greatly affected by the enzyme activity, they still have good binding ability to the integrin αvβ3 receptor. In consideration of the indispensability of EDTA for radiochemical purity, it retains a considerable amount of enzyme activity. In addition, the effect of integrin αvβ3 receptor binding ability is minimal, in combination of cell uptake, biodistribution and angiography experiment, focusing on the evaluation of target results, and the subsequent biological experiment is still carried out by the marking and purification conditions.

[3] = tested on: HUVEC, U87MG and MCF-7 cells; test: Specific binding assay of yCD series recombinant protein and cell, statement for the three cells; type: cell-based, human
Procedure: as §1, §2

decrease of binding to integrin αvβ3 by RGDfv peptide (integrin αvβ3 receptor) [%] | binding to integrin αvβ3 (integrin αvβ3 receptor; ELISA) | Molecule | binding and distribution in cells (HUVEC and U87MG cells; 4° C.) | binding and distribution in cells (HUVEC and U87MG cells; 37° C.) | cell binding ability higher than MCF-7 (HUVEC cells) | Km ([1]; calculated by 5-FC consumption) [mM] | Vmax ([1]; calculated by 5-FC consumption) [µM/min] | Km ([1]; calculated by 5-FU formation) [mM] | Vmax ([1]; calculated by 5-FU formation) [µM/min] | Km [2] [mM] | Vmax [2] [µM/min] | binding to the three cells [3]
50 | – | RGD4C-yCD/UPRT: targeted prodrug enzyme fusion protein (SEQ ID NO: 4) (protein, RGD4C_yCD_yUPRT) MACDCRGDCFCVTGGMASKWDQKGMDIAYEEAALGYKEGGVPIGGCLINNKDGSVLGRGHNMRFQKGSATLHGEISTLENCGRLEGKVYKDTTLYTTLSPCDMCTGAIIMYGIPRCVVGENVNFKSKGEKYLQTRGHEVVVVDDERCKKIMKQFIDERPQDWFEDIGEASEPFKNVYLLPQTNQLLGLYTIIRNKNTTRPDFIFYSDRIIRLLVEEGLNHLPVQKQIVETDTNENFEGVSFMGKICGVSIVRAGESMEQGLRDCCRSVRIGKILIQRDEETALPKLFYEKLPEDISERYVFLLDPMLATGGSAIMATEVLIKRGVKPERIYFLNLICSKEGIEKYHAAFPEVRIVTGALDRGLDENKYLVPGLGDFGDRYYCVLEHHHHHH | only bound to HUVEC and U87MG cell surface | enter the inside of HUVEC and U87MG cells through endocytosis | about 6.9 folds | 1.2 ± 0.2 | 147.0 ± 5.9 | 1.2 ± 0.2 | 109.2 ± 10.1 | – | – | –
50 | – | RGD4C-yCD: targeted prodrug enzyme fusion protein of RGD4C and yCD (SEQ ID NO: 3) (protein, RGD4C_yCD) MACDCRGDCFCVTGGMASKWDQKGMDIAYEEAALGYKEGGVPIGGCLINNKDGSVLGRGHNMRFQKGSATLHGEISTLENCGRLEGKVYKDTTLYTTLSPCDMCTGAIIMYGIPRCVVGENVNFKSKGEKYLQTRGHEVVVVDDERCKKIMKQFIDERPQDWFEDIGELEHHHHHH | only bound to HUVEC and U87MG cell surface | enter the inside of HUVEC and U87MG cells through endocytosis | about 7.7 folds | 0.6 ± 0.1 | 179.5 ± 4.7 | 0.9 ± 0.1 | 167.7 ± 4.6 | 1 ± 0.0732 | 288.7 ± 8.883 | –
– | cannot be bound | yCD/UPRT: recombinant fusion of yCD and yUPRT without target molecule (protein) MVVTGGMASKWDQKGMDIAYEEAALGYKEGGVPIGGCLINNKDGSVLGRGHNMRFQKGSATLHGEISTLENCGRLEGKVYKDTTLYTTLSPCDMCTGAIIMYGIPRCVVGENVNFKSKGEKYLQTRGHEVVVVDDERCKKIMKQFIDERPQDWFEDIGEASEPFKNVYLLPQTNQLLGLYTIIRNKNTTRPDFIFYSDRIIRLLVEEGLNHLPVQKQIVETDTNENFEGVSFMGKICGVSIVRAGESMEQGLRDCCRSVRIGKILIQRDEETALPKLFYEKLPEDISERYVFLLDPMLATGGSAIMATEVLIKRGVKPERIYFLNLICSKEGIEKYHAAFPEVRIVTGALDRGLDENKYLVPGLGDFGDRYYCVLEHHHHHH | can not be effectively bound | – | – | 1.2 ± 0.1 | 137.2 ± 3.6 | 1.2 ± 0.1 | 112.7 ± 8.1 | – | – | weak binding
